The data set deals with T1, E2f5 (zebrafish, UniProt A5WUE8 1-363).
T1 sequence: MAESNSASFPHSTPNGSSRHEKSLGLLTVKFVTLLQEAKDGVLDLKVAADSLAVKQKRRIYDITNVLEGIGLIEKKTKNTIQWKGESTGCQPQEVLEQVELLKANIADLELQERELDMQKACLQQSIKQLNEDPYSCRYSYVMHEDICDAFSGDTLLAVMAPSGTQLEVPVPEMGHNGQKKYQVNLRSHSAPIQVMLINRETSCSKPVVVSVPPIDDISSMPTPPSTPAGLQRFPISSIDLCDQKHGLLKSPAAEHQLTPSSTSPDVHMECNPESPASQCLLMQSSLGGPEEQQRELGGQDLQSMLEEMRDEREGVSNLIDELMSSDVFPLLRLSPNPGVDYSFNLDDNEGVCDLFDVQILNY
The experiment in a line: EMSA; 10 mM Tris-HCl pH 8.0, 50 mM NaCl, 1 mM MgCl2, 0.5 mM EDTA, 0.5 mM DTT, 4% glycerol; 3 ug protein, 1 ul annealed oligo (25 uM stock); 40 min room temperature; 6.5% native PAGE. Conditions: protein: recombinant; tags: His (pET30A, Ni-NTA purified); label: 5'-FAM; annealed with complementary oligonucleotide.

B1: dmc1 E2F site mutant probe (dsDNA)
DNA 1: TGTCAACATACGATTGTAAATTTAAATTTCTTTCAGC
DNA 2: GCTGAAAGAAATTTAAATTTACAATCGTATGTTGACA
Take B1: the binding result was “no binding”.

B2: dmc1 E2F site wild-type probe (dsDNA)
DNA 1: TGTCAACATACGATTGTGGCGCGAAATTTCTTTCAGC
DNA 2: GCTGAAAGAAATTTCGCGCCACAATCGTATGTTGACA
On to B2, for which the binding result is reported as “binds”.

The values are drawn from article PMC7112233, “E2f5 is a versatile transcriptional activator required for spermatogenesis and multiciliated cell differentiation in zebrafish”.
